Test results: PMC6863705 (Protein Science : A Publication of the Protein Society, 2019)
Residue numbers refer to the chain shown, from its start. Numbers in names are those of the source. Values belong to the binder of their own block, whether it stands above or below them.

Tests used:
[1] = molecular target: T1, Receiver domain of Ssk1 (Ssk1-R2), wild type (S. cerevisiae, UniProt Q07084 495-712); test: other fluorescence titration
T1 sequence: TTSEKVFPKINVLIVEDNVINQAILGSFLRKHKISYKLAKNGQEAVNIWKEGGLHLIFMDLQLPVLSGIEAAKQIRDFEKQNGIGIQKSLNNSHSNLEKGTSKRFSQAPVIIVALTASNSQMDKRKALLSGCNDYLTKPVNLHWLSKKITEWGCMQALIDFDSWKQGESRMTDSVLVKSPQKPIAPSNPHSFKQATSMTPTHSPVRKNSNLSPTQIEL

Ssk1-R2-K525A = molecular target: T2, Ssk1-R2-K525A (S. cerevisiae, UniProt Q07084 495-712, K525A); test: other fluorescence titration
T2 sequence: T1 sequence with K31A

Ssk1-R2-R524A = molecular target: T3, Ssk1-R2-R524A (S. cerevisiae, UniProt Q07084 495-712, R524A); test: other fluorescence titration
T3 sequence: T1 sequence with R30A

Ssk1-R2-W638A = molecular target: T4, Ssk1-R2-W638A (S. cerevisiae, UniProt Q07084 495-712, W638A); test: other fluorescence titration
T4 sequence: T1 sequence with W144A

[2] = molecular target: T5, Selenomethionine derivative of Ssk1-R2-W638A (S. cerevisiae, UniProt Q07084 495-712, W638A, selenomethionine incorporated); test: crystal structure
T5 sequence: T1 sequence with W144A

- Kd [1]: 23.7 nM
- Kd (Ssk1-R2-K525A): 640 nM
- Kd (Ssk1-R2-R524A): 918 nM
- Kd (Ssk1-R2-W638A): 219 nM
B1: Fluoresceinated Ypd1-T12C variant (Ypd1-T12C~F) (natural protein, S. cerevisiae, UniProt Q07688 1-167, looked up)
chain: MSTIPSEIINWCILNEIISMDDDDSDFSKGLIIQFIDQAQTTFAQMQRQLDGEKNLTELDNLGHFLKGSSAALGLQRIAWVCERIQNLGRKMEHFFPNKTELVNTLSDKSIINGINIDEDDEEIKIQVDDKDENSIYLILIAKALNQSRLEFKLARIELSKYYNTNL
modifications: 5-iodoacetamidofluorescein (5-IAF) on the cysteine at 12 (T12C)

- binding result [2]: binds
B2: Ypd1 (histidine phosphotransfer protein) from S. cerevisiae (natural protein, UniProt Q07688 1-167, looked up)
chain: B1 chain with C12T
